From US20180148497A1 (DUKE UNIVERSITY, published 2018)

B1: HIV-1 × Fluorescein Bi-Specific Diabody (A32 × 4420) (bispecific antibody)
chain 1: QSALTQPPSASGSPGQSVTISCTGTSSDVGGYNYVSWYQHHPGKAPKLIISEVNNRPSGVPDRFSGSKSGNTASLTVSGLQAEDEAEYYCSSYTDIHNFVFGGGTKLTVLGGGSGGGGEVKLDETGGGLVQPGRPMKLSCVASGFTFSDYWMNWVRQSPEKGLEWVAQIRNKPYNYETYYSDSVKGRFTISRDDSKSSVYLQMNNLRVEDMGIYYCTGSYYGMDYWGQGTSVTVSSGGCGGGEVAALEKEVAALEKEVAALEKEVAALEK
chain 2: DVVMTQTPFSLPVSLGDQASISCRSSQSLVHSNGNTYLRWYLQKPGQSPKVLIYKVSNRFSGVPDRFSGSGSGTDFTLKISRVEAEDLGVYFCSQSTHVPWTFGGGTKLEIKGGGSGGGGQVQLQESGPGLVKPSQTLSLSCTVSGGSSSSGAHYWSWIRQYPGKGLEWIGYIHYSGNTYYNPSLKSRITISQHTSENQFSLKLNSVTVADTAVYYCARGTRLRTLRNAFDIWGQGTLVTVSSGGCGGGKVAALKEKVAALKEKVAALKEKVAALKE
B2: HIV-1 × CD3 Bi-Specific Diabody (A32 × CD3) (bispecific antibody)
chain 1: QSALTQPPSASGSPGQSVTISCTGTSSDVGGYNYVSWYQHHPGKAPKLIISEVNNRPSGVPDRFSGSKSGNTASLTVSGLQAEDEAEYYCSSYTDIHNFVFGGGTKLTVLGGGSGGGGEVQLVESGGGLVQPGGSLRLSCAASGFTFSTYAMNWVRQAPGKGLEWVGRIRSKYNNYATYYADSVKGRFTISRDDSKNSLYLQMNSLKTEDTAVYYCVRHGNFGNSYVSWFAYWGQGTLVTVSSGGCGGGEVAALEKEVAALEKEVAALEKEVAALEK
chain 2: QAVVTQEPSLTVSPGGTVTLTCRSSTGAVTTSNYANWVQQKPGQAPRGLIGGTNKRAPWTPARFSGSLLGGKAALTITGAQAEDEADYYCALWYSNLWVFGGGTKLTVLGGGGSGGGGQVQLQESGPGLVKPSQTLSLSCTVSGGSSSSGAHYWSWIRQYPGKGLEWIGYIHYSGNTYYNPSLKSRITISQHTSENQFSLKLNSVTVADTAVYYCARGTRLRTLRNAFDIWGQGTLVTVSSGGCGGGKVAALKEKVAALKEKVAALKEKVAALKE
notes: Two-chain DART without Fc, with an interchain disulfide and E-coil/K-coil domains; also called A32×CD3 DART
B3: HIV-1 × Fluorescein Bi-Specific Diabody (7B2 × 4420) (bispecific antibody)
chain 1: DIVMTQSPDSLAVSPGERATIHCKSSQTLLYSSNNRHSIAWYQQRPGQPPKLLLYWASMRLSGVPDRFSGSGSGTDFTLTINNLQAEDVAIYYCHQYSSHPPTFGHGTRVEIKGGGSGGGGEVKLDETGGGLVQPGRPMKLSCVASGFTFSDYWMNWVRQSPEKGLEWVAQIRNKPYNYETYYSDSVKGRFTISRDDSKSSVYLQMNNLRVEDMGIYYCTGSYYGMDYWGQGTSVTVSSGGCGGGEVAALEKEVAALEKEVAALEKEVAALEK
chain 2: DVVMTQTPFSLPVSLGDQASISCRSSQSLVHSNGNTYLRWYLQKPGQSPKVLIYKVSNRFSGVPDRFSGSGSGTDFTLKISRVEAEDLGVYFCSQSTHVPWTFGGGTKLEIKGGGSGGGGQVQLVQSGGGVFKPGGSLRLSCEASGFTFTEYYMTWVRQAPGKGLEWLAYISKNGEYSKYSPSSNGRFTISRDNAKNSVFLQLDRLSADDTAVYYCARADGLTYFSELLQYIFDLWGQGARVTVSSGGCGGGKVAALKEKVAALKEKVAALKEKVAALKE
B4: HIV-1 × CD3 Bi-Specific Diabody (7B2 × CD3) (bispecific antibody)
chain 1: DIVMTQSPDSLAVSPGERATIHCKSSQTLLYSSNNRHSIAWYQQRPGQPPKLLLYWASMRLSGVPDRFSGSGSGTDFTLTINNLQAEDVAIYYCHQYSSHPPTFGHGTRVEIKGGGSGGGGEVQLVESGGGLVQPGGSLRLSCAASGFTFSTYAMNWVRQAPGKGLEWVGRIRSKYNNYATYYADSVKGRFTISRDDSKNSLYLQMNSLKTEDTAVYYCVRHGNFGNSYVSWFAYWGQGTLVTVSSGGCGGGEVAALEKEVAALEKEVAALEKEVAALEK
chain 2: QAVVTQEPSLTVSPGGTVTLTCRSSTGAVTTSNYANWVQQKPGQAPRGLIGGTNKRAPWTPARFSGSLLGGKAALTITGAQAEDEADYYCALWYSNLWVFGGGTKLTVLGGGGSGGGGQVQLVQSGGGVFKPGGSLRLSCEASGFTFTEYYMTWVRQAPGKGLEWLAYISKNGEYSKYSPSSNGRFTISRDNAKNSVFLQLDRLSADDTAVYYCARADGLTYFSELLQYIFDLWGQGARVTVSSGGCGGGKVAALKEKVAALKEKVAALKEKVAALKE
notes: Two-chain DART without Fc; also called 7B2×CD3 DART

Tests used:
[1] = target: T1, human CD3 on cells (primary human T cells; Jurkat 522-F/Y cells) (human, UniProt P07766 23-207); assay: flow cytometry on primary human T cells (Env- CD3+), biotinylated anti-EK antibody and streptavidin-PE [panel D. Human T Cells]
T1 construct: whole, on cells; The other chains of the CD3 complex were also present on the cells; also called CD3ε; human CD3+ T cells

[2] = target: T2, HIV-1 Env, HXBc2, subtype B, expressed on Jurkat 522-F/Y cells (HIV-1 (HXBc2, subtype B), UniProt P04578 33-856); assay: cell-based or functional assay
[3] = target: T3, M.ConS gp140 CFI (HIV-1 group M consensus Env protein); assay: SPR (BIAcore 3000), Env protein over DART captured on immobilized CD3
T3 construct: also called M.ConS gp140ΔCFI

[4] = target: T1, human CD3 on cells (primary human T …); assay: flow cytometry on primary human T cells (Env- CD3+), DART at 4 µg/mL, biotinylated anti-EK antibody and streptavidin-PE [panel D. Human T Cells]
[5] = target: T3, M.ConS gp140 CFI (HIV-1 group M …); assay: SPR (BIAcore 3000), M.ConS gp140 over DART captured on immobilized CD3ε/δ, 1:1 Langmuir global fit
[6] = target: T2, HIV-1 Env, HXBc2, subtype B, expressed …; assay: flow cytometry on Jurkat-522 F/Y cells (Env+ CD3+), biotinylated anti-EK antibody and streptavidin-PE [panel F. Jurkat-522 F/Y Cells]
[7] = target: JR-FL gp140 CF (HIV-1 Env protein) (HIV-1 (JR-FL)); assay: SPR (BIAcore 3000), Env protein over DART captured on immobilized CD3
[8] = target: JR-FL gp140 CF (HIV-1 Env protein) (HIV-1 (JR-FL)); assay: SPR (BIAcore 3000), JR-FL gp140 over DART captured on immobilized CD3ε/δ, 1:1 Langmuir global fit

T1 sequence (P07766 23-207): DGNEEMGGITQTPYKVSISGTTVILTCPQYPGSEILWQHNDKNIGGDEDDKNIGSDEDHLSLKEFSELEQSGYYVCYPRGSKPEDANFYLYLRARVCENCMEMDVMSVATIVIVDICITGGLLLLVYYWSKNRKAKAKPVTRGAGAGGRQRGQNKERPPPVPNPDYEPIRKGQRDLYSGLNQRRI

Row | Binder | binding result [1] | EC50 of redirected T-cell killing of Env+ Jurkat 522-F/Y GF cells, E:T 10:1, 48 hours, LUM assay [2] | EC50 of redirected T-cell killing of Env+ Jurkat 522-F/Y cells, E:T 10:1, 48 hours, LDH release assay [2] | binding result [4] | further results
1 | B1 | no binding (tested: 4 µg/mL (single concentration)) |  |  |  | 
2 | B2 |  | 0.172 ng/mL | 0.23 ng/mL | binds | Kd [3]: 47.7 nM; koff [5]: 0.00081 s⁻¹; kon [5]: 17000 M⁻¹ s⁻¹
3 | B3 | no binding (tested: 4 µg/mL (single concentration)) |  |  |  | binding result [6]: no binding (tested: 4 µg/mL (single concentration))
4 | B4 |  | 0.147 ng/mL | 0.16 ng/mL | binds | Kd [7]: 15.1 nM; koff [8]: 0.00031 s⁻¹; kon [8]: 20000 M⁻¹ s⁻¹
